In patent US8946384:

T1: recombinant Stx2B (B subunit of type-2 Shiga toxin) (E. coli EHEC O157: H7), P09386
T1 chain: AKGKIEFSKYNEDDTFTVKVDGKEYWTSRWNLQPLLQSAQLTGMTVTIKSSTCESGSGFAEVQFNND

T2: recombinant type-2 Shiga toxin (Stx2) holotoxin (E. coli EHEC O157: H7), P09385
T2 chain 1: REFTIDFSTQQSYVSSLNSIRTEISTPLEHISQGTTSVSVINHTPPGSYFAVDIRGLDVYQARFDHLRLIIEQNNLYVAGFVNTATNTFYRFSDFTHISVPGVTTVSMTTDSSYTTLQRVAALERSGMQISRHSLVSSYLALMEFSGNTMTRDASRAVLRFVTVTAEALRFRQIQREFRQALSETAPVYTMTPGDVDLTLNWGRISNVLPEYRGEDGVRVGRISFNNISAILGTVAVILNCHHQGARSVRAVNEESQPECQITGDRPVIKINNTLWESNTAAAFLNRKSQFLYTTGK
T2 chain 2: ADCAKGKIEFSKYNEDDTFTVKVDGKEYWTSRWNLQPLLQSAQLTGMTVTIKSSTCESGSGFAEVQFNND


Key:
[1] = target: T1, recombinant Stx2B (B subunit of type-2 …)
[2] = target: T2, recombinant type-2 Shiga toxin (Stx2) …

| Binder | percent of HeLa cells showing fluorescence [1] | percent of binding between FITC-Stx2B and HeLa cells blocked [1] | Kd [2] | blocking rate of binding between FITC-Stx2B and HeLa cells [1] |
| --- | --- | --- | --- | --- |
| TFNMWLPTFNQW (modifications not checked) [polypeptide TF1] | 52.8% | 45.7% | 1.25 µM | – |
| WAPWYSFTSYHL (modifications not checked) [polypeptide WA8] | – | – | 24.8 µM | 24.8% |
